Article PMC7616460, “Skraban-Deardorff intellectual disability syndrome-associated mutations in WDR26 impair CTLH E3 complex assembly” (FEBS letters, 2024)

Biological target: the molecule itself
Experiment: cryo-EM structure; focused refinement (Relion v4.0) of the prior map EMD-12545 over the WDR26-YPEL5 region, 6.7 Å; fitted with AlphaFold2 models

B1: WDR26 in the CTLH subcomplex of the cryo-EM map EMD-12545 / EMD-19039 (natural protein, human, UniProt Q9H7D7 1-661, looked up)
chain: MQANGAGGGGGGGGGGGGGGGGGGGQGQTPELACLSAQNGESSPSSSSSAGDLAHANGLLPSAPSAASNNSNSLNVNNGVPGGAAAASSATVAAASATTAASSSLATPELGSSLKKKKRLSQSDEDVIRLIGQHLNGLGLNQTVDLLMQESGCRLEHPSATKFRNHVMEGDWDKAENDLNELKPLVHSPHAIVVRGALEISQTLLGIIVRMKFLLLQQKYLEYLEDGKVLEALQVLRCELTPLKYNTERIHVLSGYLMCSHAEDLRAKAEWEGKGTASRSKLLDKLQTYLPPSVMLPPRRLQTLLRQAVELQRDRCLYHNTKLDNNLDSVSLLIDHVCSRRQFPCYTQQILTEHCNEVWFCKFSNDGTKLATGSKDTTVIIWQVDPDTHLLKLLKTLEGHAYGVSYIAWSPDDNYLVACGPDDCSELWLWNVQTGELRTKMSQSHEDSLTSVAWNPDGKRFVTGGQRGQFYQCDLDGNLLDSWEGVRVQCLWCLSDGKTVLASDTHQRIRGYNFEDLTDRNIVQEDHPIMSFTISKNGRLALLNVATQGVHLWDLQDRVLVRKYQGVTQGFYTIHSCFGGHNEDFIASGSEDHKVYIWHKRSELPIAELTGHTRTVNCVSWNPQIPSMMASASDDGTVRIWGPAPFIDHQNIEEECSSMDS
notes: WDR26, human; the fitted AlphaFold2 model is of isoform 1 (Q9H7D7-1); subcomplex held WDR26, RANBP9, TWA1, ARMC8, GID4 and YPEL5; also called WDR26 dimer
stoichiometry N: 2
